These results are taken from publication PMC12045048.

The test concerns the target AMBRA1 (activating molecule in beclin-1-regulated autophagy), endogenous in MDA-MB-231 cells (UniProt Q9C0C7). Nature of the test: anti-FLAG co-immunoprecipitation with proteomics (spectral counts). As to conditions: parent: 0.
Chain of UniProt Q9C0C7 (Q9C0C7 whole entry): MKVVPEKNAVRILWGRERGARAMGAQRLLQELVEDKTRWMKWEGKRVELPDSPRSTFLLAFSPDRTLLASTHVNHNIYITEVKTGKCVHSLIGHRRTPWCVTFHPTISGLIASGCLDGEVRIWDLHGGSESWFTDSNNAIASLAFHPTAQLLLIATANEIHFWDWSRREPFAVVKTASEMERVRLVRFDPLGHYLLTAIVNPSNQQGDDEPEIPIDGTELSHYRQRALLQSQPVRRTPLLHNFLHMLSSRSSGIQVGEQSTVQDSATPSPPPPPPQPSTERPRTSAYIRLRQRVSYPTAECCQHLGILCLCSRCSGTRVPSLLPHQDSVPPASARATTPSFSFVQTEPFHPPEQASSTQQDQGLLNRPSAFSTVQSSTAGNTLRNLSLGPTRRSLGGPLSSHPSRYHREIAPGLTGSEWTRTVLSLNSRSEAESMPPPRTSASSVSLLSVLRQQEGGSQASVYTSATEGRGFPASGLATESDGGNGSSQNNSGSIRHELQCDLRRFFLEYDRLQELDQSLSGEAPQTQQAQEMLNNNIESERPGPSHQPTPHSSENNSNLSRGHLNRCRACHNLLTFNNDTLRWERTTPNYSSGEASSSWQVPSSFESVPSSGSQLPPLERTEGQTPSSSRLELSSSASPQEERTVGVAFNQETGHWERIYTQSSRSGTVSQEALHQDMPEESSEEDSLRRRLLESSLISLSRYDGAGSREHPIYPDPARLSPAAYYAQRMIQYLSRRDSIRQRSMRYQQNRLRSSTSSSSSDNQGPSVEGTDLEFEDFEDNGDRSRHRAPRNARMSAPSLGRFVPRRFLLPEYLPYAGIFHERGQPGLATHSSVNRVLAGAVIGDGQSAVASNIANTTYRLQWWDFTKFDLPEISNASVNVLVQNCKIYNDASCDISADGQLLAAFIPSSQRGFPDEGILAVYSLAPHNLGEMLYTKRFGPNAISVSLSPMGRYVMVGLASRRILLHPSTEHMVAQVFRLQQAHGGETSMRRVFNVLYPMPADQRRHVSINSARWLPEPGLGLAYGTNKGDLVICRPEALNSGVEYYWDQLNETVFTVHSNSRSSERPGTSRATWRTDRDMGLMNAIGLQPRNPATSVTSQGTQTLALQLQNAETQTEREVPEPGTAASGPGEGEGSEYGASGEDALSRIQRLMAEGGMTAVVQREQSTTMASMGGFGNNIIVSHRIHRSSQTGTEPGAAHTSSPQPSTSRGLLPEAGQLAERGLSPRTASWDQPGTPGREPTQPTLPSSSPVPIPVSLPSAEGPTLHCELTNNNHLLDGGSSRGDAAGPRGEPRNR

Regarding “FLAG–Rab40c (wild type) in MDA-MB-231 cells (from UniProt Q96S21) 4A (211-LPLP-216 to 211-AAAA-216)”, the other: Spectral Counts (spectral counts) amounted to 7.
